{
  "source": "paper PMC8409985",
  "molecular_target": "truncated human ACE2 ectodomain (residues 19–613) with C-terminal AVI-tag and 6xHis-tag, biotinylated (human) (UniProt Q9BYF1)",
  "test": "BLI",
  "data": [
    {"substance": "SARS-CoV-2 RBD variant S477N (from UniProt P0DTC2 319-541) (domain or fragment)", "values": [
      {"measurement": "t1/2", "value": 2.68, "unit": "min"}
    ]}
  ]
}
